Measured values taken from patent publication US20110218114A1, “NUCLEOTIDE TRIPHOSPHATE WITH AN ELECTROACTIVE LABEL CONJUGATED TO THE GAMMA PHOSPHATE” (priority 2007, published 2011).
One block for each compound: values may come before it.

Experiments:
Assay type in all cases: biochemical
Abl1-T315I = molecular target: T1, Abl1-T315I (Homo sapiens, UniProt P00519, T315I); test: Electrochemical (CV) Fc-ATP phosphorylation assay, substrate peptide immobilized on gold microelectrode, Abl1-T315I; settings: for phosphorylation of immobilized peptide by Abl1-T315I (anodic current response): control peptides, HeLa cell lysate, FIG. 12C
T1 construct: purchased Cell Signalling Technology (MA, USA)
Protocol: (§1) The covalent immobilization of substrate peptides on the gold microelectrode surface using succinimide-esters of lipoic acid included the following steps: (a) incubation of the bare gold microelectrode with 5 mM NHS-lipoic acid ester in ethanol for 15 h; (b) incubation of the N-Hydroxysuccinimide (NHS)-lipoic acid-modified surface with the substrate peptides in the presence of 2 mM N-(3-Dimethylaminopropyl)-N′-ethylcarbodiimide (EDC) in 0.1 M 2-(N-Morpholino) ethanesulfonic acid (MES, pH 6) for 2 h, (c) incubation of the peptide-modified electrodes with Mercaptopolyethylene glycol 5′000 monomethyl ether (PEG-thiol 5′000) solution (1:100 v/v) in ethanol for 10 min.
Abl1-T315I kinase assay buffer included 60 mM HEPES (pH 7.5), 5 mM MgCl2, 5 mM MnCl2, 3 μM Na3VO4, 400 μM ATP, peptide substrate (STP) and the kinase in a total reaction volume of 25 μL. Purified recombinant human Abl1-T315I mutant kinase and its substrate peptide Signal Transduction Protein (STP, EGIYDVP) were purchased from Cell Signalling Technology (MA, USA). The substrate peptide modified electrodes were incubated at 37° C. for 2 h. After following the same washing procedures as for CK2, the CV measurements were recorded using the same parameters as described above.
(§2) The electrochemical data from the CV measurements are obtained as charge density (J) per test. […] Here, the detailed description of the calculation procedure will be given for CK2-catalysed phosphorylation reactions. The reaction volume is 25 μL, which leads to 2.5 nmole Fc-ATP per test. Then, the specific electro-activity (SE) of Fc-ATP (J/nmole Fc-ATP) would be calculated as follows: […]
(§3) where V is the rate, V0 is the rate in the absence of the inhibitor, [I] is the inhibitor concentration and Ki′ is the apparent inhibition constant.
(§4) where [S] is the surface density of the immobilized substrate peptide and Km is the Michaelis-Menten constant. The surface density conditions of the immobilized substrate peptide were changed between 1, 5, 10, 15 and 20 pmol/cm2. The initial time dependence of the kinase reactions were determined at these varying peptide density conditions. The phosphorylation reaction was stopped after 5, 15, 30, 60, 90, 120 and 150 min, and the measurement of the attached Fc molecules was carried out. […] If the y is set for 0 and the equation is solved for x, x intercept becomes equal to −1/Km.

HER2/ErbB2 = molecular target: T2, HER2/ErbB2 (Homo sapiens, UniProt P04626); test: Electrochemical (CV) Fc-ATP phosphorylation assay, substrate peptide immobilized on gold microelectrode, HER2/ErbB2; settings: for phosphorylation of immobilized peptide by HER2/ErbB2 (anodic current response): control peptides, FIG. 13C
T2 construct: purchased Cell Signalling Technology (MA, USA)
Protocol: as §1
(§5) The electrochemical data from the CV measurements are obtained as charge density (J) per test. The concentration of Fc-ATP for the kinase activity determinations was 100 μM, for CK2 and 200 μM for Abl1-T315I and HER2-ErbB2. Here, the detailed description of the calculation procedure will be given for CK2-catalysed phosphorylation reactions. The reaction volume is 25 μL, which leads to 2.5 nmole Fc-ATP per test. Then, the specific electro-activity (SE) of Fc-ATP (J/nmole Fc-ATP) would be calculated as follows: […]
(§6) The apparent inhibition constants Ki′ were determined by fitting equation (3) to the experimental data.
(§7) where V is the rate, V0 is the rate in the absence of the inhibitor, [I] is the inhibitor concentration and Ki′ is the apparent inhibition constant. The true inhibition constants Ki were calculated by correction of Ki′ according to Equation (4): […]
as §4

CK2α′ = CK2α′ (Homo sapiens, UniProt P19784); test: Electrochemical (CV) Fc-ATP phosphorylation assay, substrate peptide immobilized on gold microelectrode, CK2α′
Protocol: as §1
(§8) The substrate peptide modified electrodes were incubated at 37° C. for 2 h.
as §5, §6, §7, §4

CK2α = CK2α (Homo sapiens, UniProt P68400); test: Electrochemical (CV) Fc-ATP phosphorylation assay, substrate peptide immobilized on gold microelectrode, CK2α
Protocol: as §1, §8, §2, §3, §4

[1] = HER2/ErbB2, immobilized substrate peptide, Lineweaver-Burk
[2] = Abl1-T315I, immobilized substrate peptide, Lineweaver-Burk
[3] = CK2α′, immobilized substrate peptide, Lineweaver-Burk

Sequence of CK2α (P68400 whole entry): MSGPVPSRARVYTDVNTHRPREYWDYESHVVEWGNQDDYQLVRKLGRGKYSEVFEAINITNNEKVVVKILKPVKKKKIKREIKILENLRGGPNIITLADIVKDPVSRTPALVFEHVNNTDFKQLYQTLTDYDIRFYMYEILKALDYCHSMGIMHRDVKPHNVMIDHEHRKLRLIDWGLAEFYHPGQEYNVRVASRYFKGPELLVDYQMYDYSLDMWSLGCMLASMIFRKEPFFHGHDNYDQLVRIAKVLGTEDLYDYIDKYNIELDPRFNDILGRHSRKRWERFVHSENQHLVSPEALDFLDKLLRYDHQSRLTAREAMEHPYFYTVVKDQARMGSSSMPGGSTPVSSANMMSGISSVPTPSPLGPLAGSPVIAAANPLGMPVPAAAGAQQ
Sequence of CK2α′ (P19784 whole entry): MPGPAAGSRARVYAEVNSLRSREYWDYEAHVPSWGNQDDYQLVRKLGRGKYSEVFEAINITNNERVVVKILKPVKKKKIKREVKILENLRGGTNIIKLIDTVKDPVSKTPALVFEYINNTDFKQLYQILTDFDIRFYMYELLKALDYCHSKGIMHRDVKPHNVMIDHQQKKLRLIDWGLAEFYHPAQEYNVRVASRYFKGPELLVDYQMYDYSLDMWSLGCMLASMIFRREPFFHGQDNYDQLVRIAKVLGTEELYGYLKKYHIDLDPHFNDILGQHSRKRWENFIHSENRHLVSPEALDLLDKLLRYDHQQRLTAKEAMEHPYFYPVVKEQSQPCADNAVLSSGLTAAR

inhibition of EGIYDVP phosphorylation (specificity control) (Abl1-T315I; EGIYDVP peptide exposed to inhibitor, FIG. 11C-b): not inhibited
Compound: Brc1c(Br)c(Br)c2[nH]nnc2c1Br [(1), 4,5,6,7-Tetrabromo-2-azabenzimidazole]

phosphorylation of immobilized peptide by Abl1-T315I (anodic current response) (Abl1-T315I): Low current responses
Vmax/Kmax (HER2/ErbB2; HER2/ErbB2, immobilized substrate peptide): 7.41
Km (HER2/ErbB2; [1]): 208 µM
Vmax (HER2/ErbB2; [1]): 1.54 µmol/min/mg
Compound: DNEYFYV [FLT3 substrate peptide for HER2/ErbB2]

Compound: EGIYDVP [Abl1-T315I substrate peptide Signal Transduction Protein]
Vmax/Kmax (Abl1-T315I; Abl1-T315I, immobilized substrate peptide): 9.18
Km (Abl1-T315I; [2]): 182 µM
Vmax (Abl1-T315I; [2]): 1.67 µmol/min/mg
phosphorylation of immobilized peptide by HER2/ErbB2 (anodic current response) (HER2/ErbB2): slight increase in the current responses
phosphorylation of immobilized peptide by CK2 (current response) (CK2α′; control peptide in presence of cell lysate, FIG. 10B-c): did not catalyze phosphorylation

Compound: RRRDDDSDDD [CK2 peptide substrate]
phosphorylation of immobilized peptide by Abl1-T315I (anodic current response) (Abl1-T315I): did not catalyze phosphorylation
phosphorylation of immobilized peptide by Abl1-T315I (anodic current response) (Abl1-T315I; listed as CK2 substrate peptide): No significant current responses
Vmax/Kmax (CK2α): 22.64
Km (CK2α; Lineweaver-Burk): 87 µM
Vmax (CK2α; Lineweaver-Burk): 1.97 µmol/min/mg
phosphorylation of immobilized peptide by HER2/ErbB2 (anodic current response) (HER2/ErbB2): did not catalyze phosphorylation
Vmax/Kmax (CK2α′; CK2α′, immobilized substrate peptide): 18.16
Km (CK2α′; [3]): 98 µM
Vmax (CK2α′; [3]): 1.78 µmol/min/mg
